Measured values reported in the DeepSol protein solubility set.

Assay: soluble on expression in E. coli; label from the status in PepcDB or PDB records

Sequence	soluble on expression in E. coli
MANRGGEYLYDELWKLCAGPLVDVPQAQERVYYFPQGHMEQLEASTQQVDLNTMKPLFVLPPKILCNVMNVSLQAEKDTDEVYAQITLIPVGTEVDEPMSPDPSPPELQRPKVHSFSKVLTASDTSTHGGFSVLRKHATECLPPLDMTQQTPTQELVAEDVHGYQWKFKHIFRGQPRRHLLTTGWSTFVTSKRLVAGDTFVFLRGENGELRVGVRRANLQQSSMPSSVISSHSMHLGVLATARHATQTKTMFIVYYKPRTSQFIISLNKYLEAMSNKFSVGMRFKMRFEGEDSPERRYSGTVIGVKDCSPHWKDSKWRCLEVHWDEPASISRPNKVSPWEIEPFVNSENVPKSVMLKNKRPRQVSEVSALDVGITASNLWSSVLTQPHEFAQSCITSQWSSPQQCHRDANEDAKKSDWLNNSYSVSNVAKDSTLNDQMVSPVEQKKPETTANYRLFGIDLMSSSLAVPEEKTAPMRPINISKPTMDSHSDPKSEISKVSEEKKQEPAEGSPKEVQSKQSSSTRSRTKVQMQGVPVGRAVDLNALKGYNELIDDIEKLFDIKGELRSRNQWEIVFTDDEGDMMLVGDDPWPEFCNMVKRIFIWSKEEVKKMTPGNQLRMLLREVETTLTTTSKTDNHSN	soluble
MGDSVLSAIQQTITQRKSANPSESYVAQLLHKGEDKILKKVIEEAGEVLMASKDKNPSHLVYEVADLWFHTMILLTHHDLKAEDVLDELARRQGLSGLVEKAARTES	not soluble
GPGSMRAVVFSDVASAELREHIRAIASTSYAEVVYVDVSESAEADLATAWHTRYGGASHSPPAARDELDDLKNTFVCYLTEQKTIEDSDVVYAVFVAEVHTLVLTPSVTLTPLMHATADGSVSARKAAIESFFSVAPSSSSAEVIVVEGGDGAGKETQTGLLVRRVHAAGDEVHALDFPNEKGLYGGLVRAVLSGKKGPISELNPQLFSFLYSLNRFGCARQLHFWLRRGSSVVLDRYYTANFGHQASKLPPEEREAFISDLEFMEVEWLGLPRATYVLYLDLPPAVALEAMRQDATRKQLDIHETAGSDYKERVRQTYRWCCEHLPGWHHIECFSDDGRRLTREEVHASITSHLRDAGSRAIGAPS	not soluble
MAHHHHHHMKNTVVRIKAELENVKRLFCDDEYLWIFNIRDSTSSLTRDNIQFRKTDILEIPNSRGTANFMIKWTEYPKYSTINFVNTKNSCSYEEVNNNEWRDFASFECRGIELIDFFPSNNFIVEDTKGKLYYDVNLSDQNWCDYNEEHEMCVGIYNLEYEVN	soluble
MGSDKIHHHHHHMMEMVNNSFRHGILFQEGKMEEARFIERPNRFTVRCALGSEILDAYLPNPGRLWELLLPDSVLYVVRRDVGQDRKLRGVVVAVEREGRPVMLHTLACNDIVADLLRQKRLPGFEGMNILQREIARGRSRFDFLLEQNGAPRLLEVKSCTLFGRCIAMFPDAVTLRGRRHLLELAELSRQGTPAHVLFLVHWPHADFFLPDYHTDFDFASTFLAVRDAVRFSALAVDWQPDMTPGAEIRELYIPWELLEREVQDSGCYLLVLHLPRNENVIPGGSTLLSLRKGYYVTVVSIRSGLTRHLQKSSRRRPGSENSRKSTVPDNLKAAADKILAIPIRTTEPLEAELNDALSRIADWSVPGFEARGDAGLAPVFGMAGPPLQRRAFVELLLDFRINRLEKFLARGAGSSAGPPVGNPSLEKIQ	not soluble
AASWSHPQFEKGAETAVPNSGGGELFATHCAGCHPQGGNTVHPEKTLARARREANGIRTVRDVAAYIRNPGPGMPAFGEAMIPPADALKIGEYVVASFP	soluble
SGRARRAEQDARAVELGLQLVGDNLQVLHAGNPAEPALRAYLGMGLSELHVLEQPDGADALAALTDYIRDSGAQMVLAGSQAETGEGSGMLPFLLAEGLGWPLVTGLAEVESLSNGTALVLQALPRGQRRRLKVRLPFLATVDNAAPAPRQSAYGPAQRGILDVDKIETVIDDLFTAQSLQPAKPRPKRLKVIKAKSGADRMKAATAKASGGSGQVLKGLSPEQSAAAILKLLIDEGVV	not soluble
GKSIFDKLWDRHVITGKEGEPQLMYVDQHYIHEVTSPQAFQGLRDAGRKVRRPDLTFGTFDHNVPTVNIYDIRDVISKAQMDALARNVIEFNIPHADHGSENQGIVHMVGPETGRTQPGKFIVCGDSHTATHGAFGAIGFGIGTTEVEHVFATQTIWQVKPKK	not soluble
MSLKLLAIAPYEGLRQLFLRVAEEEGLSIKAEVGNLDEGVRLAKKAADESFDVIISRGGTATLIQQHLSIPVVEIEISGYDLLKNLLFLKEYPDKKAIVGFPQITNGVQLINELLDVSFSTVTIHSEGEAIHALKELKAQGFESVLGDVITVNEAERLGMNGFLLSSGEESVRKAFNQAKRVVKALGRDRLNYELPLSYLHEQERGLVLLDQNNDVCFVNEFAKKFQLMEFINDHSFMRQLRTPRETGAFSWSDGHSVWYIRYKAIGNQGLAIEFAQLNERVLNDHPKEGHHHHHH	soluble
MKNSDLYNGTLRTSFVPGSTLEAGIIFRATIPNGEFYEKEAGLSYYWLYILNGTVSFQRVENGEISNENKKYFPYGTSSAYEAKILLDDGDIYCYLNNRLVFHYTDENPLQGHQYGLKSEGSNLIVTEFATSSLEAPQHNEYLIFGHSYTDFWKTYKQDFHKYQDIYNIGIGGAITSDWCSEGYQKEVIAYQPKYGIYWNGINDINRNIAPKTIGDNVRRMAMEIKAAVPGFHLVLIGVCRCPIDSGRRSDIASTNNYYKQIASDLDYVTYIDTELMYCDSNGNEIANYFTDGLHPTHDAYIMCANAIMNTIK	soluble
MSLASPDWQDQIIYFLMIDRFNDGDSALNDQGQNEFDPTSDKKFSGGDLVGVSDKLSYIEDLGATSIWITPPVANQWWDAEQNYGGYHGYWARDFQKVDEHFGDMESYQALAREVHARNMFLIQDIVTNHVGNFFTYDDPYSYDPSLPCQGFRLIKNALPAGQELPYPLNMNECKTDGTGSYHWTPTITDHNDPVQEKTWQLSDLDDLNTSDPEVRAYLKESYRKWIREVGVDGFRIDTVKFVEHDFWSDFLHADDGVMTQAVDTGRDNFLTFGEVFETSTPYHTEGEEKMLTYIGESGSPKQLTSVLNFPLQATMTRVFASGQPTDYLRFRLEKMMEMFPNPYIMPNFIDNHDMPRFLSQGSVNDMKQALITMMSVPGIPVIYQGTEQAMSAARDAMFAGGYREDGNYVDSFDQNSEMYLFIQELAKLRTENKVMTRGEIKVIGSDKAGAGVFAFTRTLDNDEVLVVMNTSNSPMLMNQLDVEQAGGTVFKQQIMSNWADAPEQLVADENGHVTLELPAKSAVIYSKTSSNQSVNTPDLNIQLAQDWEGKTITGDIVIAGSANANEKLNLVVDGNLETAQTITVGADGQFSVTLSTRHFAIGEQQHRFAIYSTEKKAGIEDVNFVSNLSWSNTPDDTIDDAGDAQDGVGGPNGNYSLPTDPTFDKDNSQLAINKAEVFTVGSNVRLTFTMDKITDTWLPPNGFDHVGFTIFIDLPEEAATNLSELPKINASMPNGTWSRNAVVFGWQSSIYNTKGANATTWGEAVTPAPTVTVDKANNTISMDFASDALGRPESLDGIRFYVTTWDLDGLSATYRPLEQDKGPWNFSGGASDESKIWDDLPIITLSEGHHHHHH	not soluble
MEITNPILTGFNPDPSLCRQGEDYYIATSTFEWFPGVRIYHSRDLKNWSLVSTPLDRVSMLDMKGNPDSGGIWAPCLSYADGKFWLLYTDVKIVDSPWKNGRNFLVTAPSIEGPWSEPIPMGNGGFDPSLFHDDDGRKYYIYRPWGPRHHSNPHNTIVLQAFDPQTGTLSPERKTLFTGTPLCYTEGAHLYRHAGWYYLMAAEGGTSYEHAVVVLRSKNIDGPYELHPDVTMMTSWHLPENPLQKSGHGSLLQTHTGEWYMAYLTSRPLRLPGVPLLASGGRGYCPLGRETGIARIEWRDGWPYVEGGKHAQLTVKGPQVAEQPAAVPGNWRDDFDASSLDPELQTLRIPFDDTLGSLTARPGFLRLYGNDSLNSTFTQSTVARRWQHFAFRAETRMEFSPVHFQQSAGLTCYYNSKNWSYCFVDYEEGQGRTIKVIQLDHNVPSWPLHEQPIPVPEHAESVWLRVDVDTLVYRYSYSFDGETWHTVPVTYEAWKLSDDYIGGRGFFTGAFVGLHCEDISGDGCYADFDYFTYEPV	soluble
MNCRPGCGACCIAISISSPIPGMPRGKPAGVPCVQLRDDMECAIFGRPERPACCSGLRPSDEMCGGDRSHAMTWLARLEQATLPAAENTPHRPPLEHHHHHH	not soluble
MGSDKIHHHHHHMILLNKPVAPNLQKLNSYLERVHDTGWYTNFGPLHNELTEKLEEYLGVSNLLLVSNGTLAIQLAAKVFNVKQTITTPFSFVATSSSLLWQGIDLAYSDIERSSLNICPEELEKNWKSNDSYDSLLATHVYGNPCDVQKIDEIAKKYNKKIMYDAAHAFGIKVGNKSVLSFGDASTLSFHATKVFHTVEGGAVIFKDRNHFDEAKSLINFGIQNDGTLGTPGINAKLNEYQAAVGLCLLESIDDIICHRSNLFEIYRKELSNVIELPLWHRDSNYNGAYMPILPSTEVERLKIGEQLKANNIQFRRYFYPSLDKAYLRVKSFNCPVSNYIAENALCLPLHMYMTKEDVLKITATIKEIY	not soluble
MLRSLSTISKSTVRCMSLTSKMAAEQPSKQEVDDLFAEKPQHHNPEQRRHAYSVNKVELVGGVALDPLYKTGRNGKPYLIFNIITNSYFKQQDGTTLDQTERHAVSVFGKQAEILSKTIKKGSRLMVQGRLHYSGGQKDEQGNRTQRNTYIIAQTVQPLARAARENPDQH	not soluble
MTLAATLREADLFRSLPKGFVQCRACAHYCALPEGGAGKCGVRRNLGGRLYLVTYGKAAALHLDPVEKKPLYHFHPGEGILSVGTVGCNLFCAFCQNWQISQFREFRVSPEGRLDRPIGEDWPPKRLVAEAEALGVRLLAYTYNEPAVWIEYAHDTARLAKARGMKNVFVTSGFETKEAWDYIRPHLDAANVDLKGFTEKFYREVCGARLKPVLESLGHLVASGVWVEVTTLLLEGYNDSDEEVRAMARFLKGLSPDIPWHLTAAHPDYRMLDLRSTRHATLVRAHAIAKEEGLRFVYVGNVLDEERNSTYCPNCGRLLVRRRGYRVEALWEAPGVCPGCGQRIPGVWTW	soluble
GPGSMGSKYDRVKVKVHLDDEHYYILSRFILSKMLTACKLPTTAAVCVSLALKKSLVDQERLDISQRELEAATLSTMAQHGYGAAFTRLLPVMTRFFIERTPLIVFMAGSGCCGKTSMARSLSVRLNTHNIVSTDLLLDILRATHHAYPSSALRGDLVELSDERVLPCVSEHSLWLSDTLAVDDFVRLWRTLTRAIRSLVEGEVEKALVEGKVLIVEGSLIDLSLYHNYLLDSFQSQRGVIAVAFHISSDEMSRNFAVERLVSTYRSVLPLSYTDNYNGALEWVQCRLRAIEGEHLRVLRGDSSAMQLHCIDDSLCDPATGDSTSVRDLSESYSNETSSTCDTRQLRLSQDNAEIVPVYGVTNSMAASSRVCESMHGLILDRIISALKQKGPLNLEHGNVVWCQAMDSEYMSPTNDT	not soluble
MGSDKIHHHHHHMQERGLVGLGLRREMLSEFCQQLPSAIDFLEVAPENWMTLGGKYGKQFRQLTEQHTFFCHGLSLSIGSPEPLDLEFVRRIKAFMDLHQIDVYSEHLSYCSGAGHLYDLMPIPFTEAAVKHVARRVKQVEDILYRPLILENVSFYAAPSAQMTELAFLTAVLEEADCKLLLDVNNIYVNSINHQYDALAFLKAMPTERIAYLHIAGHFKESEELLIDTHGSDINAPVWALLDSCYAEHGVLPTLLERDFNLPATAHLLDEINQIHAYQARAKSNLDKRIA	not soluble
MGSDKIHHHHHHMSETENNELTAGKQSKEPRSNQKLKLLYLAKILLNNTDANHDITLDEILNKLHAYDVTAARKSLYDDIAQLNDFGIKTQKTQYGRTVHYKVIGRAFELAELKLLVDSVAAAKFITEEKSNELIKKLESLTSRQEAATLQRQVYVAGRVKTMNSDIMKNVDAIHNAIANNSSLSFQYCRWNTKKELEVKHDGARYHVSPWGLLWNDGNYYLIGYDHDTQVKDIRHYRVDKMKNILIENKVREGREKLKKLDIASYGKSKFGMYNGEEIKAEILCKNSAIGVLIDRFGTDVTILKKDEAHSRVFVKVADNKLFIHWIMAMGDNFKIIGPENLVKEVHDELNRLAKQYELAD	not soluble
